Test system: MS2 coat protein
Assay: apparent KD of MS2 coat protein; designed switch direction (-1 OFF switch, 1 ON switch): -1; higher = weaker reporter binding
In short: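 Three titration conditions were used: no input, 200 uM small-molecule ligand, and an oligonucleotide input. In each, SNAP-549-labelled MS2 coat protein was raised from 0.7 or 1.5 nM, doubling, to 3 µM over designed RNA switches transcribed on Illumina chips by stalled E. coli RNA polymerase. Curve fits of normalised cluster fluorescence gave values whose per-design median over clusters is the apparent KD.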

[1] = Eterna round: R95, input ligand: FMN 200 uM
[2] = Eterna round: R95, input ligand: microRNA oligo, concentration not stated
[3] = Eterna round: R95, input ligand: none
[4] = input ligand: microRNA oligo, concentration not stated

Row | Sequence | apparent KD of MS2 coat protein [1] [nM] | apparent KD of MS2 coat protein [2] [nM] | apparent KD of MS2 coat protein [3] [nM] | apparent KD of MS2 coat protein (input ligand: FMN 200 uM) [nM] | apparent KD of MS2 coat protein (input ligand: none) [nM] | apparent KD of MS2 coat protein [4] [nM]
1 | GCCAGAGCAGGAUAUCUAUAUUAUCACAUGAGGAUCACCCAUGUCCAGCGAAAGCUGGAGGGAGAAGGGCUCUGGC [Fiskers Ex 5 - 26] (puzzle: Exclusion 5) | 55.7 | 76.7 | 74.5 |  |  | 
2 | GCCAGAGCAGGAUAUUCAAUAAUUCACAUGAGGAUCACCCAUGUCCAGCGAAAGCUGGAAGGAGAAGGGCUCUGGC [Fiskers Ex 5 - 3] (puzzle: Exclusion 5) |  | 14.5 |  |  |  | 
3 | GCCAGAGCAGGAUAUUCAAUAUCACACAUGAGGAUCACCCAUGUCUGGCGAAAGCUAGAGGGAGAAGGGCUCUGGC [Mat - Exclusion 5 - Eli mod - D97] (puzzle: Exclusion 5) | 17.9 | 38.8 | 55.2 |  |  | 
4 | GCCCUCGCUGAGGAUAUUAUCUGGCUCGACCGAUAAGAAGGCAGUACAUGAGGAUCACCCAUGUGGUUCGUUCG [Polaris46] (Eterna round: R97, puzzle: Exclusion 6) |  |  |  | 97.9 | 41 | 
5 | GCCGGAUAAGUGAGGAUAUACCUAUGGAUACAUAGGUAGAAGGCACAUGAGGAUCACCCAUGUACCUCUCCGGC [JL-BMX4-4.18 Eli mod] (Eterna round: R97, puzzle: Brourd's mod of Exclusion 4) |  |  |  | 87.5 | 14.8 | 
6 | GCCGGGCGAGGAUAUACAUGGCGGGCGAAAGCCCGCGAUCUACAUGAGGAUCACCCAUGUAGAAGGCGCCCGGC [2nd Free energy optimized design] (Eterna round: R97, puzzle: Exclusion 2) |  |  |  | 567 | 49.3 | 
7 | GCCUCACUUGAGGAUCACCCAAGUCAGGAUAUUCACUGAACUACGUAGCAGUUCGGCCGAAGAAGGGAUUCGGG [Azaraqu] (Eterna round: R97, puzzle: Exclusion 1) |  |  |  | 44.5 | 95.1 | 
8 | GCCUCACUUGAGGAUCACCCAAGUCAGGAUAUUCACUGAACUGCGUAACAGUUCGGCCGAAGAAGGGAUUCGGG [Uscedian] (Eterna round: R97, puzzle: Exclusion 1) |  |  |  | 35.6 | 96.5 | 
9 | GCGCACCUACCAAAAGGUAGGCCAACAUGAGGAUCACCCAUGUAGGAUAUCGAUUGCUUUGCAGUCGAGAAGGACAUGAUGCGC [JL ENG3 3.80 Mod 8] (Eterna round: R96, puzzle: Exclusion NG 3) |  |  |  | 33.8 | 21.6 | 15.4
10 | GCGCACCUACCAAAAGGUAGGUCAACAUGAGGAUCACCCAUGUAGGAUAUCGAUUGCUUUGCAGUCGAGAAGGACAUGAUGCGC [JL ENG3 3.80 Mod 13] (Eterna round: R96, puzzle: Exclusion NG 3) |  |  |  | 111 | 36.7 | 36.3
11 | GCGCCAUCGUGAGAUGGCGUAUAUACAUGAGGAUCACCCAUGUAGGAUAUCGAUUGCUUUGCAGUCGAGAAGGGCAAGGUAUUU [JL ENG3 3.91] (Eterna round: R96, puzzle: Exclusion NG 3) |  |  |  | 34 | 33.8 | 25.5
12 | GCGCGCGCAGGAUAUACAUGAGGAUCACCCAUGUAGGGCCCGGGUAUUCCCGGGCCCUGUAGAAGGGUGUGUGU [-40.4, -37.1 kcal, A 19%, 0-6] (Eterna round: R97, puzzle: Exclusion 3) |  |  |  | 21.8 | 113 | 
13 | GCGCGCUAAGGAUAUACAUGAGGAUCACCCAUGUGCGCGCAAAAGCGCCGCGCGCGCGGUAGAAGGUAGGCAAA [Extraordinary-Exclusion 3] (Eterna round: R97, puzzle: Exclusion 3) |  |  |  | 16 | 11.4 | 
14 | GCGCGGACAGGAUAUACAUGAGGAUCACCCAUGUGUGAGGCUAACAGUGCCAACUCUGGUAGAAGGGUCCCGGG [EX3 B.19] (Eterna round: R97, puzzle: Exclusion 3) |  |  |  | 269 | 111 | 
15 | GCGCGUAGAUAGGAUAUUUGAUAAAGACGGACCAAAGAAGGAUUUACAUGAGGAUCACCCAUGUCGAUCCUCUU [EX6 C.17] (Eterna round: R97, puzzle: Exclusion 6) |  |  |  | 14.2 | 16.4 | 
16 | GCGGACUAGAACGUGAGUUCUGAGACAUGAGGAUCACCCAUGUAGGAUAUCGAUUCGAAACGAAUCGAGAAGGGCAUAGUCCGC [JL denovo 11] (Eterna round: R96, puzzle: Exclusion NG 3) |  |  |  | 15.2 | 17.7 | 14.7
17 | GCGGAUCUAGGAUAUACAUGAGGAUCACCCAUGUAAACUCUCUUGGAUGACUACUAUUGUAGAAGGAGAUAAGC [Erlabeedle] (puzzle: Exclusion 3) |  | 24.4 |  |  |  | 
18 | GCGUACUGAGGAUAUACAUGAGGAUCACCCAUGUGAAGAAGAAAGUAGUGAUGGUUGGGUAGAAGGCAGUAUGC [JR_Ex3_Sub064] (Eterna round: R97, puzzle: Exclusion 3) |  |  |  | 103 | 98.5 | 

Row | Sequence | apparent KD of MS2 coat protein [1] [nM] | apparent KD of MS2 coat protein [2] [nM] | apparent KD of MS2 coat protein [3] [nM] | apparent KD of MS2 coat protein (input ligand: FMN 200 uM) [nM] | apparent KD of MS2 coat protein (input ligand: none) [nM] | apparent KD of MS2 coat protein [4] [nM]
19 | GCGUUCUGAGGAUAUACAUGAGGAUCACCCAUGUUGAGAAGAAAGUAUAAAAGAUUGUGUAGAAGGCAGAGUGC [JR_Ex3_Sub070] (Eterna round: R97, puzzle: Exclusion 3) |  |  |  | 112 | 38.4 | 
20 | GCUCUCUCUCUGUCUCUCUACAUGAGGAUCACCCAUGUGUCUCGCUCGCUCUCUCUCUCUCUUUCUCUCUCUCUCUU [Default title] (Eterna round: R97, puzzle: Sensor, turn-off variant 1) |  |  |  | 104 | 135 | 
21 | GCUGCACAUGUAGGAUAUCUGCACGUGUAGUGCAGAGAAGGACAUGAGGAUCACCCAUGUAGAUCAGCAGCAAUUAAUUUAAUU [ENG1/6-A2] (Eterna round: R96, puzzle: Exclusion NG 1) |  |  |  | 150 | 242 | 273
22 | GCUGCGCGAGGAUAUGCGGUUCGGGCGGUGGCCGCUGGCGGACAUGAGGAUCACCCAUGUAGAAGGCGUGCGGG [Apr-15 SS2-61] (puzzle: Exclusion 2) |  | 14.9 |  |  |  | 
23 | GCUGCGCGAGGAUAUGCGGUUUGUGCUUUGGCCCAUGGCGUACAUGAGGAUCACCCAUGUAGAAGGCGUGUGGG [Apr-15 SS2-52] (puzzle: Exclusion 2) |  | 12 |  |  |  | 
24 | GCUGGAAAAGGAUAUACAUAACGUGCGUCAGCACGAGACCUACAUGAGGAUCACCCAUGUAGAAGGUUUCCAGC [EX2 #75] (Eterna round: R97, puzzle: Exclusion 2) |  |  |  | 22.8 | 16.8 | 
25 | GCUGGACAAGGAUAUAUAUGACGUGCUUCGGCACGAAGAUCACAUGAGGAUCACCCAUGUAGAAGGUGUCCAGC [E2/8-C2] (Eterna round: R97, puzzle: Exclusion 2) |  |  |  | 594 | 91.8 | 
26 | GCUGGUCAAGGAUAUACAAUCGUGCUUCGGCACGUAAGAUCACAUGAGGAUCACCCAUGUAGAAGGUGACCAGC [E2/1-C1] (Eterna round: R97, puzzle: Exclusion 2) |  |  |  | 507 | 37.2 | 
27 | GCUGGUCAAGGAUAUGCAAUCGUGCUUCGGCACGUAAGGUCACAUGAGGAUCACCCAUGUAGAAGGUGACCAGC [E2/4-C1] (Eterna round: R97, puzzle: Exclusion 2) |  |  |  | 27.8 | 18.4 | 
28 | GCUGGUCGAGGAUAUGCAAUCGUGCUUCGGCACGUAAGAUCACAUGAGGAUCACCCAUGUAGAAGGUGACCAGC [E2/3-B1] (Eterna round: R97, puzzle: Exclusion 2) |  |  |  | 31.2 | 17.8 | 
29 | GCUGGUGUGCAGGAUAUUUAAUUGCAAAUAAAUAAAGAAGGGCAUACAUGAGGAUCACCCAUGUCGUCGUUGCG [Eternabot (L1) Solution 98] (Eterna round: R97, puzzle: Exclusion 6) |  |  |  | 39.2 | 32.7 | 
30 | GCUUCGGCAGGAUAUACAAGCUUCGGCUGAAAAGUUGAAGUACAUGAGGAUCACCCAUGUAGAAGGGUUGAAGU [-25.7, -24.2 kcal, A 32% 3 bis, 3 bis] (Eterna round: R97, puzzle: Exclusion 2) |  |  |  | 45.6 | 60.1 | 
31 | GCUUGGCGAGGAUAUACAUGAGGAUCACCCAUGUGAGAGAAUAAAGUGAGGAAGAAAAGUAGAAGGCGCUGAGG [Mat - Exclusion 3 - Mod of Salish D58] (Eterna round: R96, puzzle: Exclusion 3) |  |  |  | 181 | 54.5 | 45
32 | GCUUGGCGAGGAUAUACAUGAGGAUCACCCAUGUGAGAGAAUAAAGUGAGGAAGAAAAGUAGAAGGCGCUGAGG [Mat - Exclusion 3 - Mod of Salish D58] (puzzle: Exclusion 3) | 199 | 40.4 | 40.4 |  |  | 
33 | GCUUGUGUUGAGGAUAUGCGCCGGCUCGCUGGCGCAGAAGGCGGCACAUGAGGAUCACCCAUGUCAGUUCGCGG [salish99_ex6_r004_009] (Eterna round: R97, puzzle: Exclusion 6) |  |  |  | 321 | 93.8 | 
34 | GGAAAGGUAGGAUAUACGAAGAAAAAGGGUAGAAUAAUAACACAUGAGGAUCACCCAUGUAGAAGGACCAAAGG [Mat - Exclusion 2 - Mod of my Tesla design - D6] (puzzle: Exclusion 2) | 40.5 | 23.1 | 19.3 |  |  | 
35 | GGAAGAGAGUUAGGAUAUAUAAGAAGAAUGUGGGUAGAAGGAACGAAACAUGAGGAUCACCCAUGUCCCAUGUUGAGGAGGAGG (Eterna round: R96, puzzle: Exclusion NG 1) |  |  |  | 1530 | 560 | 349

— the supplement of paper PMC9170038
